The record followed here is article doi:10.1101/2020.11.24.395475.

The series concerns the target ARTD2WGR-RD-ART (Homo sapiens, UniProt Q9UGN5 90-583). Kind of series: X-ray crystallography.

ARTD2WGR-RD-ART, sequence (Q9UGN5 90-583): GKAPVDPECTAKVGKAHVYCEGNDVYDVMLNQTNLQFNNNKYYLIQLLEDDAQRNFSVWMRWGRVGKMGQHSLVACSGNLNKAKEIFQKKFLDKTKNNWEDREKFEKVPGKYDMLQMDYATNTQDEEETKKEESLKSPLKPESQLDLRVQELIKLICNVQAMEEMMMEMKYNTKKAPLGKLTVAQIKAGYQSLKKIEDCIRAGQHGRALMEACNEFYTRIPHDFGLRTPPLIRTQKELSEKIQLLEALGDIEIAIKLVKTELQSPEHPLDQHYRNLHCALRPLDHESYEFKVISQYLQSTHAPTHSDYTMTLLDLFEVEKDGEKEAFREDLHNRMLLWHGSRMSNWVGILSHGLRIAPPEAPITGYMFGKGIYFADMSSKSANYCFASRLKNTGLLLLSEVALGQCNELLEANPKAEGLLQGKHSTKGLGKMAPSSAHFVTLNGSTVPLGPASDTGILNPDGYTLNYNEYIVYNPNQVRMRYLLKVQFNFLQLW

B1: DNA-1 (dsDNA)
DNA 1: GACGACCCGGAGCACA
DNA 2: TGTGCTCCGGGTCGTC
modifications: 5'-phosphate on forward strand
In the case of B1, the binding result is listed as “binds”.
